From patent US20190201542A1 (AbbVie / Abbott, published 2019)
Positions count from the first letter of the chain named. One block for each binder: values may come before it.

Target: T1, human DLL3 (human, UniProt Q9NYJ7 27-492, limits assumed)
T1 construct: also called hDLL3; DLL3 protein
T1 sequence: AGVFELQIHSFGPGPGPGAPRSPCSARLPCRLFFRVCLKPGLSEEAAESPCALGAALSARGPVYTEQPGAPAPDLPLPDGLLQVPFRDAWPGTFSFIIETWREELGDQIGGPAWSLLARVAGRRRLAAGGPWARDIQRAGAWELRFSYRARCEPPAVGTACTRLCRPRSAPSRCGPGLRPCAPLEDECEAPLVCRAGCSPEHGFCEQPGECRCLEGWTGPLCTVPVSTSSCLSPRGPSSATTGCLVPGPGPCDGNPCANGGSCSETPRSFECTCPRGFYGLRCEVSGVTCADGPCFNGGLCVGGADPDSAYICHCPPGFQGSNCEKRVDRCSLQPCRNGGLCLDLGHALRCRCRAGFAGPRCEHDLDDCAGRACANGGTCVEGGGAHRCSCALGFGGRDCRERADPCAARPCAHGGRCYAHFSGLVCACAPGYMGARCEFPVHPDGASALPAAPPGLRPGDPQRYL
Test: screen on immobilized hDLL3 or h293-hDLL3 cells
Method in brief: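 Solid-phase ELISA on DLL3-His (0.5 μg/ml coating), developed with HRP anti-mouse IgG and TMB and read at OD 450, was one screen for supernatants of single-cell hybridomas from human DLL3-immunized mice taken after 10 days in culture. Flow-cytometry binding counted as positive only above the control.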

B1: SC16.5 (antibody, V domains shown)
VH: QVTLKESGPGILQPSQTLSLTCSFSGFSLSTSGMGVGWIRQPSGEGLEWLADIWWDDNKYYNPSLKSRLTISKDTSSNQVFLKITSVDTADTATYYCARRVNYVYDPYYAMDYWGQGTSVTVSS
VL: QIVLTQSPAIMSASPGEKVTMTCSASSSVSYMHWYQQKSGTSPKRWIYDTSKLASGVPARFSGSGSGTSYSLTISSMEAEDAATYYCQQWTRNPLTFGAGTKLELK
notes: murine mAb
binding result: binds

B2: SC16.25 (antibody, V domains shown)
VH: B1 VH with A51T, K83N, V104Y
VL: B1 VL with T50S, T91S, R92S
notes: murine mAb
binding result: binds

B3: SC16.21 (antibody, V domains shown)
VH: QVQLQQSGPELVKPGASVKISCKASGYAFSSSWMNWVKQRPGKGLEWIGRIYPGDGDTNYNGKFKGKATLTADKSSSTAYMQLSSLTSEDSAVYFCAMGIYNYDGSRYYSMDYWGQGTSVTVSS
VL: DIVMTQSPSSLAMSVGQKVTMSCKSSQSLLNSSNQKNYLAWYQQEPGQSPKLLVSFASTRESGVPDRFTGSGSGTDFTLTISGVQAEDLAVYYCQQHYSIPLTFGAGTKLELK
notes: murine mAb
binding result: binds

B4: SC16.19 (antibody, V domains shown)
VH: EVQLQQSGAELVRPGASVKLSCTASGFNIKDSLLHWVKQRPEKGLEWIGWIDPEDGETKYAPNFQDKATITTDSSSNTAYLQLISLTSVDTAIYYCAYGNYVRHFDYWGQGTTLTVSS
VL: DIQMTQSPSSLSASLGGKVTFTCKASQDIHKYVAWYQHKPGKGPRLLIHYTSTLQPGISSRFSGSGSGRDYSFSISNLEPEDIATYYCLQYNNLYTFGGGTKLEIK
notes: murine mAb
binding result: binds

B5: SC16.29 (antibody, V domains shown)
VH: QVQLQQSGAELARPGASVKLSCKASGYTFTDQYINWVKQRTGQGLEWIGEIYPGRGNTYYNEKFKGKATLTADKSSSTAYMQLSSLTSEDSAVYFCAREDGGYDDAWFAYWGQGTLVTVSA
VL: QIVLTQSPAIMSASPGEKVTITCSASSSVSYMHWFQQKPGTSPKLWIYTTSNLASGVPARFSGSGSGTSYSLTVSRMEAEDAATYYCQQRSLYPYTFGGGTKVEIK
notes: murine mAb
binding result: binds

B6: SC16.52 (antibody, V domains shown)
VH: QVQLKESGPGLVAPSQSLSITCAVSGFSLTSFAIHWFRKPPGKGLEWLGVIWTGGTTNYNSALMSRLSISKDNSKSQVFLKMNSLQTDDTAMYYCARDDYDNNYAMDYWGQGTSVTVSS
VL: DIQMIQSPSSMFASLGDRVSLSCRASQGIRGTLDWYQQKPNGTIKLLIYSTSNLNSGVPSRFSGSGSGSDYSLTISSLESEDFADYYCLQRNAYPLTFGAGTKLELK
notes: murine mAb
binding result: binds

B7: SC16.57 (antibody, V domains shown)
VH: EVKLVESGGDLVKPGGSLKLSCAASGFAFSSYDMSWVRQTPEKRLEWVATISSGGSYTYYPDSVKGRFTISRDNVRDTLYLQMSSLRSEDTALYYCARQAIGTYFDYWGQGTTLTVSS
VL: DIVMTQSHKFMSISVGDRVSITCKASQDVSIFVAWYQQKPGQSPKLLIYSASYRYTGVPDRFTGSGSGTDFIFTISSVQAEDLAVYYCQQHYGTPFTFGSGTKLKIR
notes: murine mAb
binding result: binds

B8: SC16.38 (antibody, V domains shown)
VH: EVQLQQSGAELVKPGASVKLSCTVSGFNIKDTYIHWVKQRPEQGLEWIGRIDPANGNTKYDPKFQGKATITADTSSNTAYLQLSSLTSEDTAVYYCARPTGYFEYWGQGTTLTVSS
VL: QIVLTQSPAIMSASPGEKVTMTCSASSSINYMHWYQQKPGTSPKRWIYDTSKLASGVPARFSGSGSGTSYSLTISSMEAEDAATYYCHQRSTWTFGGGTKLEIK
notes: murine mAb
binding result: binds

B9: SC16.49 (antibody, V domains shown)
VH: QVQLQQSGPELVKPGTLVKISCKASGYTFTSYDINWVKQRPGQGLEWIGWIYPGDGNTKYSEKFKGKATLTADKSSSTAYMQLTSLTSENSAVYFCARDYDYPFAYWGQGTLVTVSA
VL: DIKMTQSPSSMYASLGERVTITCKASQDINSYLSWFQQKPGKSPKTLIYRANRLVDGVPSRFSGSGSGQDYSLTITSLEYEDMGIYYCLQYDEFPLTFGAGTKLELK
notes: murine mAb
binding result: binds

B12: SC16.18 (antibody, V domains shown)
VH: EVKLEESGGGLVQPGESMKLSCAASGFTFSDAWMDWVRQSPEKGLEWVAEIRNKANNHATYYAESVKGKFTISRDDSKSRVYLQMNNLRAADTGIYYCTAYSNFAYWGQGTLVTVST
VL: DIQMTQTTSSLSASLGDRVTISCRASQNIINYLNWYQQKPDGTVKLLIYYTSRLHSGVPSRFSGSGSGTDYSLTISNLEPEDIATYYCQQYSERPYTFGGGTKLEIK
notes: murine mAb
binding result: binds

More lines, now with the values ahead:

binding result: binds
B10: SC16.55 (antibody, V domains shown)
VH: EVQLVESGGGLVQPKGSLKLSCAVSAFTFTTYAMNWVRQAPGKGLEWVARIRNKSNNYATYYADSVKDRFTISRDDSQSMLYLQMNNLKIEDTAMYYCVFYYDYVYWGQGTLVTVSA
VL: B9 VL with S34N, T76S, L96Y, A100G, L106I
notes: murine mAb

binding result: binds
B11: SC16.22 (antibody, V domains shown)
VH: QVQLQQPGAELVKPGASVKLSCKASGYTFTTYWMHWVKQRPGQGLEWIGEIDPSDSYTYYNQKFKGKATLTVDKSSSTAYMQLSSLTSEDSAVYYCARGDYGNPYAMDYWGQGSSVTVSS
VL: DIQMTQTTSSLSASLGDRVTISCRASQDIKNYLNWYQQKPDGTVKPLIYYTSRVHSGVPSRFSGSGSGTDYSLTISNLEQEDIATYFCQQGYTLPFTFGSGTKLEIK
notes: murine mAb

binding result: binds
B13: SC16.35 (antibody, V domains shown)
VH: DVQLQESGPGLVKPSQSLSLTCTVTGYSITSDYAWNWIRQFPGNKLEWMGYISYSGSTSYNPSLKSRISITRDTSKNQFFLQLNSVTTEDTATYYCARFYYGSSYAMDYWGQGTSVTVSS
VL: B11 VL with K30S, P46L, V54L, Y92N, F96Y, S100G
notes: murine mAb

binding result: binds
B14: SC16.4 (antibody, V domains shown)
VH: QIQLVQSGPELKKPGETVKISCKASGYTFTDYSMHWVKQAPGKGLKWMGWINTETGEPGYADDFKGRFAFSLETSASTAYLQINNLKNEDTATYFCARYDGYAMDYWGQGTSVTVSS
VL: B11 VL with K30S, P46L, V54L, Q80L, Y92D, T93M, F96W, S100G
notes: murine mAb

binding result: binds
B15: SC16.41 (antibody, V domains shown)
VH: B12 VH with P14F, E16G, A63P, K69R, A91E, A100G, N103S, T117A
VL: B12 VL with N28D, I29V, G68R
notes: murine mAb

binding result: binds
B16: SC16.20 (antibody, V domains shown)
VH: QVQLQQSGTELVRPGTSVRVSCKASGYAFGNHLIEWVKQRPGQGLEWIGVINPGTGGTHYNEKFKDKARLTADKSSNTAYMHLNSLTSDDSAVYFCARSPYDYHEGAMDYWGQGTSVTVSS
VL: EIQMTQSPSSMSASLGDRITITCQATQDIVKNLNWYQQKPGKPPSFLIYYATELAEGVPSRFSGSGSGSDYSLTIRNLESEDFADHYCLQFYEFPFTFGAGTKLELK
notes: murine mAb

binding result: binds
B17: SC16.45 (antibody, V domains shown)
VH: QVQLQQSGADLVRPGTSVKVSCKASGYSFTNYLIEWVKQRPGQGLEWIGVINPGSGGTHYNEKFKDKAVLTADKSSTTAHMQLSSLTSDDSAVYFCARSPYDYNDGAMDYWGQGTSVTVSS
VL: B16 VL with S60A, R76S, H86Y, Y87H
notes: murine mAb

binding result: binds
B18: SC16.3 (antibody, V domains shown)
VH: QVTLKESGPGILQPSQTLSLTCSFSGFSLSTSGMGVGWIRQPSGKGLEWLAHIWWDDVKRYNPALKSRLTISKDTSSSQVFLKIASVDTADTATYYCARIADYGGDYYAMDYWGQGTSVTVSS
VL: QIVLTQSPAIMSVSLGERVTMTCTASSSVSSSYLHWYQQKPGSSPKLWIYSTSNLASGVPARFSGSGSGTSYFFTISSMEAEDAATYYCHQYHRSPFTFGAGTKLKIR
notes: murine mAb

binding result: binds
B19: SC16.30 (antibody, V domains shown)
VH: QVTLKESGPGILQPSQTLSLTCSFSGFSLSTSGMGVGWIRQPSGKGLEWLAHIWWDDVKRYKPALKSRLTVSKDTSSNQVFLKIATVDAADTGTYYCARIVDGHPPFAYWGQGTLVTVSA
VL: B18 VL with A9T, V13A, S30T, F73S, F74L, Y92F, A101S, K106E, R108K
notes: murine mAb

binding result: binds
B20: SC16.42 (antibody, V domains shown)
VH: QIQLVQSGPELKKPGETVKISCKASGYTFTTAGMQWVQKMPGKGFKWIGWINTHSGEPKYADDFKGRFAFSLETSASTAYLQISNLKDEDTATFFCAPLWSDSSFAYWGQGTLVTVSA
VL: DVLMTQSPLSLSVSLGDQASISCRSSQNIVHSDRYTYLEWYLQKPGQSPKLLIYGVSNRFSGVPDRFSGSGSGTDFTLKISRVEAEDMGVYYCFQGTHVPYTFGGGTKLEIK
notes: murine mAb

binding result: binds
B21: SC16.47 (antibody, V domains shown)
VH: EVQLQQSGPELVKPGASVKISCKASGYSFSRFYMHWVKQSPENSLEWIGEINPSTGGTSYNQKFKGKATLTVDKSSSTAYMQLKSLTSEESAVYYCTRGYGSNCYFDVWGAGTTVTVST
VL: DVVLTQSPLSLPVNIGDQASISCKSTKSLLNSDGFTYLDWYLQRPGQSPQFLIYLVSNRFSGVPDRFSGSGSGTDFTLKISRVEAEDLGVYYCFQSNYLPLTFGAGTKLELR
notes: murine mAb
